The test concerns the target T1, recombinant fusion protein including mouse PD-1 and immunoglobulin Fc portion (mouse, UniProt Q02242 25-167, limits assumed).
T1 construct: also called mouse PD-1-Fc; not shown: immunoglobulin Fc portion
T1 sequence (looked up): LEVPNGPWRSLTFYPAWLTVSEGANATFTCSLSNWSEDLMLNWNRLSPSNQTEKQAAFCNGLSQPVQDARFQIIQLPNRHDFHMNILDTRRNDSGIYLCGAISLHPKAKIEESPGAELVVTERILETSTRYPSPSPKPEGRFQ
Put plainly: ELISA: mouse PD-1-Fc immobilized in wells; scFv from conditioned medium of conv./PD-1 and 7x19/PD-1 CAR-T cells captured; detected with anti-FLAG tag or anti-6xHis tag; signal observed for both (FIG. 15). The procedure:
Prior to using various CAR-T cells in experiments, the concentration of anti-mPD-1 scFv (also referred to PD-1scFv) was measured using two kinds of ELISA kit. Specifically, a conditioned medium of the untransduced T cells, the anti-hCD20-CAR-expressing T cells, the anti-hCD20 CAR-IL-7/CCL19-expressing T cells, the anti-hCD20-CAR-anti-PD-1-antibody-expressing T cells, or the anti-hCD20-CAR-IL-7/CCL19-anti-PD-1-antibody-expressing T cells was collected after 2 days of cultivation, and the concentrations of […] in the conditioned medium were measured using ELISA. In the ELISA, a recombinant fusion protein including mouse PD-1 and immunoglobulin Fc portion was immobilized in the wells, PD-1 scFv was captured thereto, and an anti-FLAG tag or anti-6xHis tag was used for detection. In FIG. 15, the average value over the triplicate wells as well as the standard deviation thereof are indicated in the graph. In each graph, data are arranged from the left to the right: the untransduced T cells (uninf.), the anti-hCD20-CAR-expressing T cells (conv.), the anti-hCD20 CAR-IL-7/CCL19-expressing T cells (7×19), the anti-hCD20-CAR-anti-PD-1-antibody-expressing T cells (conv./PD-1), the anti-hCD20-CAR-IL-7/CCL19-anti-PD-1-antibody-expressing T cells (7×19/PD-1), and a culture medium only (data obtained by performing the same treatment on the culture liquid to which T cells were not added).
For orientation: An ELISA detects its analyte on a solid surface through an enzyme-linked reagent.

Experimental findings from patent US20220401480A1 (NOILE IMMUNE BIOTECH, published 2022) are described below.

B1: anti-mPD-1 scFv (anti-mouse-PD-1 scFv with FLAG tag and His tag, secreted by transduced mouse T cells) (scFv)
scFv: QFVLTQPKTVSESLGRTVTISCKRSSGSVGDYYVSWHQQRFGSSPKTVIYLDDERPSGVPKRFSGSIDSSSNSASLTITDLQTDDEADYFCLSYDSNNHFVFGSGTHLTVLGGGGSGGGGSGGGGSEVQLVESGGGLAQPGKSLKLSCEASGFTFSDYGMNWFRQAPGKGLEWVAYISSGSNKITYADTVKGRFTVSRDNGKNQLFLQMNNLKSEDTAIYYCVDSGFNSYSDVWGQGIQVTVSSDYKDDDDKFVEHHHHHH
notes: It was tested as conditioned medium and was not purified; also called anti-PD-1 scFv
Take B1: the binding result was “binds”.
